Measurements from patent publication US20260152527A1 (SIGHTSTREAM BIOTHERAPEUTICS, published 2026).
Starred links: 1 amine or outer side, 2 acyl side, 3 side chain; linkers in the order of their positions; H or OH if unused. Positions of bridges follow the written chain, without caps; N, C: chain ends. Non-standard residues stand in square brackets, D forms with d. *: point of attachment. dPhe(4-CF3) = N[C@H](Cc1ccc(C(F)(F)F)cc1)C(=O)O; Benzoyl(3,5-(OH)2) = O=C(c1cc(O)cc(O)c1)*; dLys(N3) = [N-]=[N+]=NCCCC[C@@H](N)C(=O)O; NMeW = CN[C@@H](Cc1c[nH]c2ccccc12)C(=O)O; Lys(N3) = [N-]=[N+]=NCCCC[C@H](N)C(=O)O; Phe(4-NH2) = Nc1ccc(C[C@H](N)C(=O)O)cc1; mXylylene = c1cc(C[*:1])cc(C[*:2])c1; NMeH = CN[C@@H](Cc1c[nH]cn1)C(=O)O; NMeR = CN[C@@H](CCCNC(=N)N)C(=O)O; NMeF = CN[C@@H](Cc1ccccc1)C(=O)O; dNMeF = CN[C@H](Cc1ccccc1)C(=O)O; hArg = N=C(N)NCCCC[C@H](N)C(=O)O; R5 = C=CCCC[C@@](C)(N)C(=O)O; S5 = C=CCCC[C@](C)(N)C(=O)O; Nle = CCCC[C@H](N)C(=O)O; Pra = C#CC[C@H](N)C(=O)O

Columns and labels:
Experiment in all cases: cell-based or functional assay
[1] = molecular target: human recombinant MC4R (CHO-K1/Gα15 stable cell line, GenScript) (human, UniProt P32245 1-332)
Chain of human recombinant MC4R (CHO-K1/Gα15 stable cell line, GenScript) (P32245 whole entry): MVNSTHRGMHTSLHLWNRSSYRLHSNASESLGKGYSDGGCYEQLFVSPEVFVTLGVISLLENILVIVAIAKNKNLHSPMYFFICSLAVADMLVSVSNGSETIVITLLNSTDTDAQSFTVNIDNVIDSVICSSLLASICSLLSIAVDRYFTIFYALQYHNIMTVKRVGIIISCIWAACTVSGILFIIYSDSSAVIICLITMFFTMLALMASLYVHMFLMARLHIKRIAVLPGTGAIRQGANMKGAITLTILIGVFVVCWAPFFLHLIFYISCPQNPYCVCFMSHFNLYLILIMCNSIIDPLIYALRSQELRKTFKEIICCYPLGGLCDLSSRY

[2] = molecular target: human recombinant MC1R (CHO-K1 stable cell line, GenScript) (human, UniProt Q01726 1-317)
Chain of human recombinant MC1R (CHO-K1 stable cell line, GenScript) (Q01726 whole entry): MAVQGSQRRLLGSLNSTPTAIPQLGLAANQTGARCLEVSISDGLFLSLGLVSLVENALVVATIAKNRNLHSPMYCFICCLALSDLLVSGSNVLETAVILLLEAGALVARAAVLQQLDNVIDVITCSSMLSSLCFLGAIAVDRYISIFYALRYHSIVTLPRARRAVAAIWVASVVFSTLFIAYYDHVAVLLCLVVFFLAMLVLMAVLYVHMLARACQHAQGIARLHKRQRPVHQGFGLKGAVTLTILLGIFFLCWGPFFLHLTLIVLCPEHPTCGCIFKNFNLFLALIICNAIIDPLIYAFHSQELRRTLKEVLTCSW

[3] = molecular target: human recombinant MC5R (CHO-K1/Ga15 stable cell line, GenScript) (human, UniProt P33032 1-325)
Chain of human recombinant MC5R (CHO-K1/Ga15 stable cell line, GenScript) (P33032 whole entry): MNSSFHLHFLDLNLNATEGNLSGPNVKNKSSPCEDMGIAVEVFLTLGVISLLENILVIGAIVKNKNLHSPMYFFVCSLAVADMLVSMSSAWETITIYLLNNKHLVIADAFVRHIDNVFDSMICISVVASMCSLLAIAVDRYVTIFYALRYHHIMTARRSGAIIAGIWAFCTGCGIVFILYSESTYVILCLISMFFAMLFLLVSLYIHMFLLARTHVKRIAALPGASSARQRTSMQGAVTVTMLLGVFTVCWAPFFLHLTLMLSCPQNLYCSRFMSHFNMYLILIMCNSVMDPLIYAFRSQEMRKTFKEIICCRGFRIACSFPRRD

[4] = molecular target: human recombinant MC3R (CHO-K1/Gα15 stable cell line, GenScript) (human, UniProt P41968 1-323)
Chain of human recombinant MC3R (CHO-K1/Gα15 stable cell line, GenScript) (P41968 whole entry): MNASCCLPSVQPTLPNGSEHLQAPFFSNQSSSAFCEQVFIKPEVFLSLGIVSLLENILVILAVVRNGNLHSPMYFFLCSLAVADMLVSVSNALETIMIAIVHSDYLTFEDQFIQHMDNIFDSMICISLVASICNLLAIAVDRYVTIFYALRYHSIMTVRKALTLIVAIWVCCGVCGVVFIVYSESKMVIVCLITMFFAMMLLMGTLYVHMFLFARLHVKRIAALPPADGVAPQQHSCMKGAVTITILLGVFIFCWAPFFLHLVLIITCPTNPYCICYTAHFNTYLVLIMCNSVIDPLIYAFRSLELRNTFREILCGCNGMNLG

Binder	MC4R IC50 [1] [nM]	MC1R IC50 [2] [nM]	MC5R IC50 [3] [nM]	MC3R IC50 [4] [nM]
Ac-[Nle][Lys(N3)][NMeH][dF][NMeR]W[Pra]-NH2 (triazole 2-7; not fully specified) [KR-052]	122	2.68	195	> 50000
Ac-[Nle][Lys(N3)]H[dF]RW[Pra]K-NH2 (triazole 2-7) [KR-037]	35	0.024	106	62.9
XXHFRWX (Ac-Nle-[Dab-His-DPhe-Arg-Trp-Dab] Linker: succinic acid-NH2) [KR-041]	13.8	0.04	44.3	24.1
Ac-EHFRWGC-NH2 (bridge N-7; not fully specified (bridges); printed as Cyclo(-Ac-Glu-His-Phe-Arg-Trp-Gly-Cys)-NH2) [KR-012]	16	20		5570
Ac-SYSMEH[NMeF]RWGKPV-NH2 [KR-022]		> 200	698	> 50000
Ac-[Nle]EHFRWGKC-NH2 (not fully specified (bridges); printed as -Cyclo(-Ac-Nle-Glu-His-Phe-Arg-Trp-Gly-Lys-Cys)-NH2; also: cyclo(...) including Ac, ring type and places not given here) [KR-036]	40.6	0.88	289	328
Ac-MEHFRWGKPV-NH2 [KR-003]	40.5	0.13	315	289
Ac-[Nle][Lys(N3)][NMeH][dF]R[NMeW][Pra]-NH2 (triazole 2-7) [KR-051]	96.2	0.043	98.9	77.5
Ac-EHFRWGKPV-NH2 [KR-004]	34.2	1.15	> 10000	937
Ac-[Nle][Lys(N3)]H[dF][hArg]W[Pra]K-NH2 (triazole 2-7; not fully specified; printed as Ac-Nle-[Lys(N3)-His-DPhe-HArg-Trp-Pra]-Lys-NH2) [KR-054]	31.9	0.093	82.3	67.8
Ac-[Nle][Lys(N3)]H[dF]R[NMeW][Pra]-NH2 (triazole 2-7) [KR-046]	39.3	0.28	94.8	98.8
Ac-[Nle][Lys(N3)]H[dPhe(4-CF3)]RW[Pra]-NH2 (triazole 2-7) [KR-048]	183	0.18	48.8	> 50000
Ac-[Nle][R5]H[dF]RW[S5]-NH2 (staple 2-7; SMILES CCCC[C@H](NC(C)=O)C(=O)N[C@]1(C)CCCC=CCCC[C@@](C)(C(N)=O)NC(=O)[C@H](Cc2c[nH]c3ccccc23)NC(=O)[C@H](CCCNC(=N)N)NC(=O)[C@@H](Cc2ccccc2)NC(=O)[C@H](Cc2c[nH]cn2)NC1=O) [KR-038]	74	> 50	5090	20000
{Benzoyl(3,5-(OH)2)}-[Nle][Lys(N3)]H[dF]RW[Pra]K-NH2 (triazole 2-7; not fully specified; printed as HyBA-Nle-[Lys(N3)-His-DPhe-Arg-Trp-Pra]-Lys-NH2) [KR-053]	39.8	0.0089	120	78.1
XXHFRWX (Ac-Nle-[Dab(N3)-His-DPhe-Arg-Trp-Dab(N3)] linkr: 3,3′-Oxybis[1-propyne]-NH2) [KR-042]	109	0.16	237	225
Ac-[Nle][Lys(N3)][Phe(4-NH2)][dF]RW[Pra]-NH2 (triazole 2-7) [KR-047]	17.9	> 50	41.9	80.9
Ac-[Nle][dLys(N3)]H[dF]RW[Pra]K-NH2 (triazole 2-7; not fully specified; printed as Ac-Nle-[DLys(N3)-His-DPhe-Arg-Trp-Pra]-Lys-NH2) [KR-069]	30.9	16.5	161	

Binder	MC4R IC50 [1] [nM]	MC1R IC50 [2] [nM]	MC5R IC50 [3] [nM]	MC3R IC50 [4] [nM]
Ac-[Nle][Lys(N3)]H[dF][NMeR][NMeW][Pra]-NH2 (triazole 2-7) [KR-050]	242	0.081	234	4480
Ac-SYSMEHF[NMeR]WGKPV-NH2 [KR-023]		21.2	4540	13400
Ac-[Nle][Lys(N3)]H[dNMeF]RW[Pra]-NH2 (triazole 2-7) [KR-044]	238	> 50	2300	> 50000
Ac-YSMEHFRWGKPV-NH2 [KR-001]	87.6	0.061	84.4	199
Ac-[Nle]EHFRWGK-NH2 (SMILES CCCC[C@H](NC(C)=O)C(=O)N[C@@H](CCC(=O)O)C(=O)N[C@@H](Cc1c[nH]cn1)C(=O)N[C@@H](Cc1ccccc1)C(=O)N[C@@H](CCCNC(=N)N)C(=O)N[C@@H](Cc1c[nH]c2ccccc12)C(=O)NCC(=O)N[C@@H](CCCCN)C(N)=O) [KR-035]	59.6	0.36	404	276
Ac-[Nle][Lys(N3)]H[dF][NMeR]W[Pra]-NH2 (triazole 2-7) [KR-045]	40.3	0.48	191	> 50000
Ac-SYSME[NMeH]FRWGKPV-NH2 [KR-021]			225	445
Ac-[Nle][Lys(N3)][NMeH][dF]RW[Pra]-NH2 (triazole 2-7) [KR-043]	31.4	0.15	86	61.6
Ac-[Nle][Lys(N3)]H[dF]RW[Pra]N-NH2 (triazole 2-7; not fully specified; printed as Ac-Nle-[Lys(N3)-His-DPhe-Arg-Trp-Pra]-Asn-NH2) [KR-056]	23.1	0.052	69.6	66.5
Ac-SYSMEHFRWGKP-NH2 [KR-005]	67	0.093	79.8	149
{CH2CO}-EHFRWC-NH2 (thioether N-6; SMILES N=C(N)NCCC[C@@H]1NC(=O)[C@H](Cc2ccccc2)NC(=O)[C@H](Cc2c[nH]cn2)NC(=O)[C@H](CCC(=O)O)NC(=O)CSC[C@@H](C(N)=O)NC(=O)[C@H](Cc2c[nH]c3ccccc23)NC1=O) [KR-011]	104	128		> 50000
Ac-[Nle]CH[dF]RWC-NH2 (linker 2-7 via mXylylene) [KR-040]		0.124	257	
Ac-SYSMEHFR[NMeW]GKPV-NH2 [KR-024]		0.88		515
Ac-[Nle]CH[dF]RCW-NH2 (linker 2-6 via mXylylene) [KR-032]	194		489	1330
Ac-SYSMEH[dNMeF]RWGKPV-NH2 [KR-025]		17.8	1080	> 50000
Ac-[Nle][S5]H[dF]RW[S5]-NH2 (staple 2-7) [KR-039]	35.4	1.95	739	426
